In patent US7947807B2, “Method for obtaining G protein-coupled receptor (GPCR) diffraction-quality crystals employing a monoclonal antibody that binds to the third intracellular loop (IL3)” (The Board of Trustees of the Leland Stanford Junior …, priority 2007, dated 2011):
Entries after “also recorded” stand apart in the source; their conditions may differ. Read-outs that look alike come from different tables or passages of the source.

Tests used:
β2AR [1] = molecular target: T1, β2AR (Homo sapiens, UniProt P07550); test: Saturation and competition binding assays on purified β2AR reconstituted in phospholipid vesicles, with and without prebound Fab 5; conditions: saturation binding, read-out: [3H]dihydroalprenolol Kd ± S.E.
T1 construct: hexahistidine (C); made in house; host or cells: Sf9 insect cells
Procedure: The effect of Fab binding on ligand binding properties and on agonist-induced three dimensional changes was determined.

β2AR [2] = molecular target: T2, β2AR (Homo sapiens, UniProt P07550, A271C/I135W); test: Bimane fluorescence assay of agonist-induced conformational change (β2AR labeled with monobromobimane at H271C); type: biochemical; conditions: 1 μM Fab5, 100 μM isoproterenol, 15 minutes
T2 construct: made in house
Text: (§1) FIGS. 3A and 3B. […] The fragmented β2AR was visualized using an Alexa-680 labeled M1 antibody against the N-terminal Flag epitope. […] The loop is marked with MW indicators corresponding to N-terminal fragments containing the Flag epitope. Residues sensitive to trypsin digest are shown in red. 3B, The change in the bimane fluorescence of β2AR labeled with monobromobimane at H271C at the cytoplasmic end of TM6. Bimane fluorescence is quenched by W135 at the cytoplasmic end of TM3 upon agonist binding^9. […] Fluorescence intensity was corrected for background fluorescence from buffer and ligands in all experiments. The data are the mean±S.E. of two independent experiments performed in triplicate.
Purified receptor was reacted with 1:1 equivalent of monobromobimane (mBBr, Invitrogen) in buffer A (100 mM NaCl, 20 mM HEPES, pH 7.5, 0.1% dodecyl maltoside) and incubated overnight on ice in the dark. The fluorophore-labeled receptor was purified right before use by gel filtration on a desalting column equilibrated with buffer B. Fluorescence spectroscopy experiments were performed on a Spex FluoroMax-3 spectrofluorometer (Jobin Yvon Inc, NJ) with photon counting mode by using an excitation and emission bandpass of 4 nm. All experiments were performed at 25° C. For emission scans, excitation was set at 370 nm and emission was measured from 430-530 nm with an integration time of 1 s/nm. […]

denatured β2AR = molecular target: T3, denatured β2AR (Homo sapiens, UniProt P07550); test: Dot-blot binding of antibodies to SDS-denatured β2AR; conditions: β2AR denatured with SDS, spotted on nitrocellulose
T3 construct: hexahistidine (C); made in house; host or cells: Sf9 insect cells
Procedure: (§2) FIGS. 2A and 2B. Binding characteristics of β2AR-specific antibodies. 2A, Dot-blots showing binding of nine β2AR specific antibodies to denatured receptor. Equal amounts of β2AR denatured with SDS and β-mercaptoethanol were spotted in triplicate on nitrocellulose strips. The strips were blocked with 5% non-fat dry milk in PBS-Tween (0.05% Tween-20) and then probed with […] of the indicated antibodies diluted in blocking buffer. Binding of the primary antibody to the denatured β2AR was detected with an Alexa-688 labeled anti-mouse secondary antibody. The top panel is a graphical representation of the average dot intensity from three independent experiments. The lower panel is a representative experiment. The binding of all 9 antibodies to denatured β2AR is reduced compared to M1 binding to the linear Flag epitope. 2B, Dose-response curves showing the effect on increasing amounts of antibodies 4-9 on the fluorescence of β2AR labeled at C265 with tetramethylrhodamine (β2AR-TMR). β2AR-TMR was diluted to 4 nM in 500 μL of buffer consisting of 0.1% dodecylmaltoside, 100 mM sodium chloride, and 20 mM HEPES buffer (pH 7.5). Data represent an n of 3.
Antibodies were screened for binding to a three dimensional epitope on the three-dimensional surface on the IC3 of the native β2AR, rather than a flexible linear epitope. […]

β2AR-TMR = molecular target: T4, β2AR-TMR (Homo sapiens, UniProt P07550); test: Fluorescence of β2AR labeled at C265 with tetramethylrhodamine (β2AR-TMR), antibody dose-response; type: biochemical
T4 construct: made in house
Procedure: as §2, with “The binding of all 9 antibodies to denatured β2AR is reduced compared to M1 binding to the linear Flag epitope.” left out, “Data represent an n of 3.” left out
To select for antibodies that may interact with IC3, we examined the effect of antibody binding on the fluorescence of β2AR labeled at C265 (at the cytoplasmic end of TM6) with tetramethylrhodamine. […] As such, antibodies binding to IC3 may stabilize a specific conformation of TM5 relative to TM6 that would be detected by a change in tetramethylrhodamine fluorescence.

[3] = molecular target: T5, flag tagged β2AR stably expressed in HEK-293 cells (Homo sapiens, UniProt P07550); test: Immunofluorescence staining of HEK-293 cells stably expressing flag tagged β2AR, nonpermeabilized or permeabilized; type: cell-based; conditions: compared with M1 antibody
T5 construct: expressed in transfected cells
Procedure: HEK-293 cells stably expressing a flag tagged version of the β2AR were cultured on coverslips and processed for immunocytochemistry. After fixation, with 4% paraformaldehyde, the cells were washed and blocked with 2.5% goat serum in PBS alone (nonpermeabilized) or with 0.5% NP-40 in PBS (permeabilized). The cells were incubated with the β2AR specific antibody indicated on the left side of the figure. After several washes, the β2AR monoclonal antibodies were detected with a Texas Red conjugated anti-mouse secondary antibody. […] The images shown are representative of at least 3 experiments. All images were acquired using an Axioplan 2 microscope (Carl Zeiss MicroImaging), fitted with a camera (RTE/CCD-1300-Y/HS; Roper Scientific) controlled using IPLab software (BD Bioscience).
The antibodies were characterized as binding the intracellular or extracellular surface of the receptor in immunofluorescence experiments with HEK-293 cells stably expressing an N-terminally FLAG-tagged version of the β2AR. Antibodies that recognize an intracellular epitope only stain permeabilized cells.

β2AR [4] = molecular target: T1, β2AR; test: Limited tryptic digestion of purified β2AR with and without Fab 5, Western blot; type: biochemical; conditions: preincubated with Fab 5; M1 anti-FLAG Western blot
Text: as §1
Cleavage of purified β2AR with trypsin yielded two bands with molecular weights of approximately 27 and 29 kDa on a Western blot probed with the M1 anti-FLAG antibody (FIG. 3A). The sizes of these fragments indicate trypsin digestion at two of ten potential sites in IC3 (FIG. 3A).

β2AR [5] = molecular target: T1, β2AR; test: Coupling of purified β2AR to purified G protein; type: biochemical; conditions: data not shown

Row | immunostaining on binding to native receptor in fixed cells [3] | coupling of purified β2AR to purified G protein (β2AR [5]) | Molecule | Kd (β2AR [1]; β2AR without prebound Fab 5) [nM] | Kd (β2AR [1]; β2AR-Fab5 (prebound Fab 5)) [nM] | effect on agonist-induced bimane fluorescence change (β2AR [2]) | binding to denatured β2AR (denatured β2AR) | affinity for the β2AR (in words) (β2AR-TMR; from β2AR-TMR dose-response curves, FIG. 2B) | fluorescence response of β2AR-TMR (β2AR-TMR; β2AR labeled at C265 with tetramethylrhodamine) | protection of IC3 from trypsin cleavage (β2AR [4])
1 |  |  | CCCc1ccccc1OCC(O)CNC(C)C (stereo not shown) [[^3H]dihydroalprenolol] | 1.02 ± 0.09 | 1.08 ± 0.05 |  |  |  |  | 
2 | comparable to M1 |  | antibody 5: mouse monoclonal antibody binding a three dimensional epitope on the third intracellular loop of β2AR (protein) light: DIKMTQSPSSMYASLGERVTITCKASQDINSYLSWFQQKPGKSPKTLIYRANRLVDGVPSRFIGTGSGQDYSLTISSLDYEDMGIYYCLQYDEFPYTFGGGTKLEIKRADAAPTVSIFPPSSEQLTSGGASVVCFLNNFYPKDINVKWKIDGSERQNGVLNSWTDQDSKDSTYSMSSTLTLTKDEYERHNSYTCEATHKTSTSPIVKSFNRNEC heavy: EVQLQQSGAELARPGASVKLSCKASGYIFTDYYINWVRQRTGQGFEWIGEIYPGSGNIDYNERFKDKATLTADKSSSTAYMQLSSLTSEDSAVYFCVRGFGYWGQGTTLTVSSAKTTPPSVYPLAPGSAAQTNSMVTLGCLVKGYFPEPVTVTWNSGSLSSGVHTFPAVLQSDLYTLSSSVTVPSSTWPSETVTCNVAHPASSTKVDKKIVPRDCGC |  |  | not affected | weakest binding to denatured protein; also recorded: bound weakly | highest affinity; also recorded: relatively high affinity | largest fluorescence response; also recorded: significantly greater than the response to antibody 9 | 
3 |  | prevented coupling | Fab 5: Fab fragment of antibody 5 generated by papain cleavage; light chain SEQ ID NO: 1, heavy chain SEQ ID NO: 2 (antibody, mus musculis; UNSURE (0)...(0) Fab 5 Heavy chain; UNSURE (0)...(0) Fab5 light chain) heavy: EVQLQQSGAELARPGASVKLSCKASGYIFTDYYINWVRQRTGQGFEWIGEIYPGSGNIDYNERFKDKATLTADKSSSTAYMQLSSLTSEDSAVYFCVRGFGYWGQGTTLTVSSAKTTPPSVYPLAPGSAAQTNSMVTLGCLVKGYFPEPVTVTWNSGSLSSGVHTFPAVLQSDLYTLSSSVTVPSSTWPSETVTCNVAHPASSTKVDKKIVPRDCGC light: DIKMTQSPSSMYASLGERVTITCKASQDINSYLSWFQQKPGKSPKTLIYRANRLVDGVPSRFIGTGSGQDYSLTISSLDYEDMGIYYCLQYDEFPYTFGGGTKLEIKRADAAPTVSIFPPSSEQLTSGGASVVCFLNNFYPKDINVKWKIDGSERQNGVLNSWTDQDSKDSTYSMSSTLTLTKDEYERHNSYTCEATHKTSTSPIVKSFNRNEC |  |  | did not restrict the movement of transmembrane segments |  |  |  | the 27 kDa band disappears; also recorded: protects the N-terminal end of the loop
